The values that follow come from patent US20130023033A1, “PHARMACOLOGICALLY INDUCED TRANSGENE ABLATION SYSTEM” (The Trustees of the University of Pennsylvania, priority 2010, published 2013).

Assay [1] has as its system pCMV.Luciferase reporter gene in HEK293 cells. Description: Ablation of luciferase reporter by FokI ablators cotransfected with pCMV.Luciferase. Type of assay: cell-based, human. To be noted: for expression of Luc reporter gene with increasing concentrations of ablator expression plasmid: 50 ng pCMV.Luciferase cotransfected with 6.25, 12.5, 25, 50 and 100 ng expression plasmid. The method, then:
Open reading frames encoding for various endonucleases were codon optimized and de novo synthesized by GeneArt. Ablator expression and target plasmids were produced using standard molecular biological cloning techniques. Transfections were performed in HEK293 cells using Lipofectamine™ 2000 transfection reagent (Life Technologies). All transfections were performed using optimal transfection conditions as defined in transfection reagent protocol. Briefly, 200-250 ng plasmid DNA (excluding transfection control plasmid) was complexed with lipofectamine and added to cells in 96 well plates. DNA quantities were consistent across all conditions by supplementation with an unrelated plasmid containing the same promoter as test plasmids. Transfection complexes were incubated with cells for 4-6 hours as transfection reagent protocol before the addition of FBS supplemented media. Transfected cells were incubated at 37° C. for 24-72 hours. Following incubation, cells were assayed for reporter gene expression using Promega Dual Luciferase detection kit according to the manufacturer's instructions on a BioTek Clarity platereader and renilla luciferase was used to control for transfection efficiency. All samples were performed in quadruplicate and standard errors of the mean were calculated.

Assay [2] deals with GFP-Luciferase driven by a promoter induced by the dimerized TF. Description: In vivo model for a dimerizer-inducible system (Xenogen imaging of luciferase after rapamycin). Also on record: species or system mouse. To be noted: rapamycin 2 mg/kg IP. The source says: Four groups of three mice received IV injection of AAV vectors encoding bicistronic reporter genes (GFP-Luciferase) at doses of 3×10^10, 1×10^11 and 3×10^11 particles of virus, respectively: Group 1 (G 1, G2, and G3) received AAV vectors expressing GFP Luciferase under the control of ubiquitous constitutive CMV promoter (see FIG. 16A for a diagram of the DNA construct). Group 2 (G4, G5, and G6) received co-injection of the following 2 AAV vectors: (1) AAV vector expressing a dimerizable transcription factor domain unit (FRB fused with p65 activation domain and DNA binding domain ZFHD fused with 3 copies of FKBP) driven by the CMV promoter (the DNA construct shown in FIG. 9B; and (2) AAV vector expressing GFP-Luciferase driven by a promoter induced by the dimerized TF (see FIG. 19C for a diagram of the DNA constructs). Group 3 (G7, G8, and G9) received AAV vector expressing GFP-Luciferase under the control of a liver constitutive promoter, TBG (see FIG. 16C for a diagram of the DNA construct). Group 4 (G10, G11, G12) received co-injection of the following 2 AAV vectors: (1) AAV vector expressing a dimerizable transcription factor domain unit (FRB fused with p65 activation domain and DNA binding domain ZFHD fused with 3 copies of FKBP) driven by the TBG promoter; and (2) AAV vector expressing GFP-Luciferase driven by a promoter induced by the dimerized TF (see FIG. 16D for a diagram of the DNA constructs).
About 2 weeks post virus administration, the mice were given IP injection of the dimerizer, rapamycin, at the dose of 2 mg/kg. Starting the next day the luciferase expression was monitored by Xenogen imaging analysis. Approximately 24 hours post rapamycin injection, the mice were IP injected with luciferin, the substrate for luciferase, then anesthetized for imaging.

The target in assay [3] is ZFHD-FKBP fusion with 3 copies of FKBP (3xFKBP) (UniProt P62942). Description: cell-based or functional assay.
Chain of UniProt P62942 (P62942 other isoform, or with tags, fused parts or gaps): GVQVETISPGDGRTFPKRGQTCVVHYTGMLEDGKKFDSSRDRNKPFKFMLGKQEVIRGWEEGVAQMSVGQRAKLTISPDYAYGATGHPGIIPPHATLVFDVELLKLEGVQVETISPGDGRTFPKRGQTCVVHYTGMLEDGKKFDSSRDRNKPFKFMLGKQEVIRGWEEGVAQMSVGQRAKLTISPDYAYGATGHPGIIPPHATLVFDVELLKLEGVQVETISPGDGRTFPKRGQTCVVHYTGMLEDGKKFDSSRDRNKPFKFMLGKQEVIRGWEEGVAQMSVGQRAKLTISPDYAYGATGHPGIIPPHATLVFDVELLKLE

Entries after “also recorded” stand apart in the source; their conditions may differ. Where only a bound is given, the exact number is not on record here.

Turning to “ZFHD-FokI: FokI catalytic domain fused to a zinc finger homeodomain DNA binding domain (SEQ ID NO: 21), from expression plasmid”, in assay [1], the “expression of Luc reporter gene with increasing concentrations of ablator expression plasmid” value is listed as “dose dependent ablation; also recorded: effectively ablated expression of luciferase reporter in a dose dependent manner”.
For `CO[C@H]1C[C@@H]2CC[C@@H](C)[C@@](O)(O2)C(=O)C(=O)N2CCCC[C@H]2C(=O)O[C@H]([C@H](C)C[C@@H]2CC[C@@H](O)[C@H](OC)C2)CC(=O)[C@H](C)/C=C(\C)[C@@H](O)[C@@H](OC)C(=O)[C@H](C)C[C@H](C)/C=C/C=C/C=C/1C` [rapamycin], the “level of luciferase expression compared to level of pre-induction” value in assay [2] (Group 2 mice (TF unit driven by CMV promoter + inducible GFP-Luciferase vector), 3×10^11 particles, about 24 h post rapamycin) is reported as “more than 2 logs”. Also, the “luciferase expression induced compared to pre-inducement” value in assay [2] (Group 4 mice (TF unit driven by TBG promoter + inducible GFP-Luciferase vector), 3×10^11 particles, about 24 h post rapamycin) is reported as “more than 100 fold”. Besides, the “peak level of luciferase expression over baseline” value in assay [2] (dimerizer-inducible system) was “more than 2 logs”.
In the case of “FRB-TA fusion (FRB fragment of FRAP/mTOR, amino acids 2021-2113 with Thr2098Leu, fused to a 190 amino acid portion of human NF-KB p65)”, in assay [3], the luciferase expression in mice (Xenogen imaging) after rapamycin 2 mg/kg IP against pre-induction; Group 2, transcription factor domains driven by the CMV promoter came out at 2 logs and the luciferase expression in mice (Xenogen imaging) after rapamycin 2 mg/kg IP against pre-induction; Group 4, transcription factor domains driven by the TBG promoter was above 100 fold.

B1: untethered FokI: FokI catalytic domain alone, 198 amino acids (SEQ ID NO: 14), from expression plasmid (protein)
chain: MKQLVKSELEEKKSELRHKLKYVPHEYIELIEIARNPTQDRILEMKVMEFFMKVYGYRGEHLGGSRKPDGAIYTVGSPIDYGVIVDTKAYSGGYNLPIGQADEMQRYVEENQTRNKHINPNEWWKVYPSSVTEFKFLFVSGHFKGNYKAQLTRLNHITNCNGAVLSVEELLIGGEMIKAGTLTLEEVRRKFNNGEINF
For B1, the “expression of Luc reporter gene with increasing concentrations of ablator expression plasmid” value in assay [1] is given as “no effect”.

B2: wild-type FokI: full-length FokI enzyme (SEQ ID NO: 12) expressed from cotransfected plasmid pCMV.FokI (protein)
chain: MFLSMVSKIRTFGWVQNPGKFENLKRVVQVFDRNSKVHNEVKNIKIPTLVKESKIQKELVAIMNQHDLIYTYKELVGTGTSIRSEAPCDAIIQATIADQGNKKGYIDNWSSDGFLRWAHALGFIEYINKSDSFVITDVGLAYSKSADGSAIEKEILIEAISSYPPAIRILTLLEDGQHLTKFDLGKNLGFSGESGFTSLPEGILLDTLANAMPKDKGEIRNNWEGSSDKYARMIGGWLDKLGLVKQGKKEFIIPTLGKPDNKEFISHAFKITGEGLKVLRRAKGSTKFTRVPKRVYWEMLATNLTDKEYVRTRRALILEILIKAGSLKIEQIQDNLKKLGFDEVIETIENDIKGLINTGIFIEIKGRFYQLKDHILQFVIPNRGVGTKQLVKSELEEKKSELRHKLKYVPHEYIELIEIARNPTQDRILEMKVMEFFMKVYGYRGEHLGGSRKPDGAIYTVGSPIDYGVIVDTKAYSGGYNLPIGQADEMQRYVEENQTRNKHINPNEWWKVYPSSVTEFKFLFVSGHFKGNYKAQLTRLNHITNCNGAVLSVEELLIGGEMIKAGTLTLEEVRRKFNNGEINF
With B2, the “expression of the luciferase reporter gene” value in assay [1] (50 ng pCMV.Luciferase, 200 ng pCMV.FokI or transfected FokI protein (FIG. 25A)) is “effective ablated expression”.

B3: HTH-FokI: HTH from Gin, linker and FokI catalytic domain (SEQ ID NO: 6), from expression plasmid (protein)
chain: MGRPPRLTKAEWEQAGRLLAQGIPRKQVALIYDVALSTLYKKHPAKRAHIENDDRINGTKQLVKSELEEKKSELRHKLKYVPHEYIELIEIARNPTQDRILEMKVMEFFMKVYGYRGEHLGGSRKPDGAIYTVGSPIDYGVIVDTKAYSGGYNLPIGQADEMQRYVEENQTRNKHINPNEWWKVYPSSVTEFKFLFVSGHFKGNYKAQLTRLNHITNCNGAVLSVEELLIGGEMIKAGTLTLEEVRRKFNNGEINF
With B3, the “expression of Luc reporter gene with increasing concentrations of ablator expression plasmid” value in assay [1] is on record as “effectively ablated expression of luciferase reporter in a dose dependent manner”.

B4: NLS-HTH-FokI: HTH-FokI with heterologous NLS added at the N-terminus of the coding sequence (protein)
chain: MPKKKRKVGRPPRLTKAEWEQAGRLLAQGIPRKQVALIYDVALSTLYKKHPAKRAHIENDDRINGTKQLVKSELEEKKSELRHKLKYVPHEYIELIEIARNPTQDRILEMKVMEFFMKVYGYRGEHLGGSRKPDGAIYTVGSPIDYGVIVDTKAYSGGYNLPIGQADEMQRYVEENQTRNKHINPNEWWKVYPSSVTEFKFLFVSGHFKGNYKAQLTRLNHITNCNGAVLSVEELLIGGEMIKAGTLTLEEVRRKFNNGEINF
modifications: SV40 NLS-Gin HTH-linker-FokI, coding sequence only; modified enzyme from SV40, Gin and FokI
On to B4, for which, in assay [1] (compared with HTH-FokI without NLS, separate experiment (FIG. 27B)), the “activity (ablation of luciferase reporter) after adding heterologous NLS at the N-terminus” value is “further improved”.
